The source of these data is ChEMBL document CHEMBL5233245, “Monocarboxylate transporter 1 and 4 inhibitors as potential therapeutics for treating solid tumours: A review with structure-activity relationship insights” (Eur J Med Chem, 2020).

Substrate in data set [1]: CCC(=O)C(=O)O
The data set is described as follows: (§1) Substrate activity at rat MCT4 expressed in Xenopus laevis oocytes assessed as Km. As to conditions: Oocyte. The data set is classed as cell-based.

Substrate in data set [2]: C[C@H](O)C(=O)O
Described as §1. The data set is classed as cell-based. As to conditions: Oocyte.

Substrate in data set [3]: C[C@H](O)C(=O)O
In words: Substrate activity at chicken MCT3 expressed in yeast assessed as Km incubated for 3 mins by Michaelis-Menten analysis. As to conditions: Gallus gallus.

Substrate in data set [4]: CC(=O)C(=O)O
The data set is described as follows: (§2) Substrate activity at rat MCT2 expressed in Xenopus laevis oocytes assessed as Km by Michaelis-Menten analysis. Type of data set: cell-based. As to conditions: Oocyte.

Substrate in data set [5]: C[C@H](O)C(=O)O
The data set is described as §2. The data set is classed as cell-based. As to conditions: Oocyte.

Substrate in data set [6]: CC(C)(OCc1nn(Cc2ccccc2)c2ccccc12)C(=O)O
As to conditions: Homo sapiens; Oocyte; time 10.0 min.

Substrate in data set [7]: CCC(=O)C(=O)O
The data set is described as follows: (§3) Substrate activity at rat MCT1 expressed in Xenopus laevis oocytes assessed as Km. Type of data set: cell-based. As to conditions: Oocyte.

Substrate in data set [8]: C[C@@H](O)C(=O)O
Described as §3. Type of data set: cell-based. As to conditions: Oocyte.

Substrate in data set [9]: C[C@H](O)C(=O)O
The data set is described as §3. Type of data set: cell-based. As to conditions: Oocyte.

B1: Monocarboxylate transporter 4 (Rattus norvegicus), O35910 (protein)
chain: MGGAVVDEGPTGIKAPDGGWGWAVLFGCFIITGFSYAFPKAVSVFFKELMHEFGIGYSDTAWISSILLAMLYGTGPLCSMCVNRFGCRPVMLVGGLFASLGMVAASFCRSIIQIYLTTGVITGLGLALNFQPSLIMLNRYFNKRRPMANGLAAAGSPVFLCALSPLGQLLQDHYGWRGGFLILGGLLLNCCVCAALMRPLVAPQASGGAEPHGPQRPSPRLLDLSVFRDRGFLIYAVAASIMVLGLFVPPVFVVSYAKDMGVPDTKAAFLLTILGFIDIFARPTAGFITGLKKVRPYSVYLFSFAMFFNGFTDLTGSTASDYGGLVVFCIFFGISYGMVGALQFEVLMAIVGTQKFSSAIGLVLLLEAVAVLIGPPSGGKLLDATKVYKYVFILAGAEVLTSSLVLLLGNFFCIGKRKRPEVTKPEEVASEEEKLHKPPVDVRVDSREVEHFLKAEPEKNGEVVHTPETSV
For orientation: Km means the concentration of substrate that gives half-maximal velocity. Turning to B1, the Michaelis-Menten constant (Km) in data set [1] amounted to 57 mM; in data set [2], 22 mM.

B2: Monocarboxylate transporter 3 (Gallus gallus), Q90632 (protein)
chain: MGRADPEEGQLPAPVKPPDGGWGWIVLFGCFVITGFSYAFPKAVSVYFKELMKDFHVGYSDTAWISSIMLAMLYGTGPVCSIMVNQFGCRPVMLIGGLLASSGMILASFTTNIIELYLTAGVLTGLGMALNFQPSLIMLGTYFDKRRPLANGLAAAGSPVFLSSLSPLGQVLLEKFGWRGGFLIMGGLLLNCCTCGAVMRPLDAGMKRKTEKAQDKYEAKEMLPMGGKSEEGISTTDGTKKTKKAKKKPKKGKKLLDFSIFSNRGFIIYTISKFILVLGLFVPPILLVNYAKDTGVPDTEAAFLLSIIGFIDIFARPACGMVAGLKWVRPHVAYLFSFAMLFNGLTDICSARASNYTGLVIFCVFFGISYGMVGALQFEVLMAIVGSQKFSSAIGLVLLIEAFAVLIGPPSAGRLVDALKNYEVIFYLAGSEVVLSALFLAMATYCCLNRGKKTPPPEKNPSAGGGSDTEEAESDVQEAEEHSSDNHQPAHGTDKATVAANEEANHVEDEQSGEGGRCPEADGEVSSRAGCNADQTVERDSF
As to B2, the Michaelis-Menten constant (Km) in data set [3] is 6 mM.

B3: Monocarboxylate transporter 2 (Rattus norvegicus), Q63344 (protein)
chain: MPSESSVKATAAPPPFPLPPDGGWGWVVVCASFISIGFSYAFPKAVTVFFNDIKDIFKTTSSQIAWISSIMLAVMYAGGPISSVLVNNYGSRPVVIVGGLLCCTGMILASFSSSVIELYLTVGFIGGLGLAFNLQPALTIIGKYFYRKRPLANGFAMAGSPVFLSTLAPFNQFLFNSYGWKGSFLILGAIFLHSCVAGCLMRPVGPSPRAAKSKSKVGSRQDSSTKRLSKVSTAEKINRFLDFGLFTHRGFLIYLSGNVVLFLGMFAPIIFLAPYAKDKGVDDYNSAFLLSVMAFTDMFARPSVGLIANTSLIRPRIQYLFSVAIMFTGICHLLCPLAHSYTALVVYVIFFGIGFGSISSLLFECLMDQVGASRFSSAVGLVTIVECCPVLFGPPLAGKLLDITGQYKYLYIASGIVVLSSGIYLLICNAINYRLLEKERKREKARRKKSASQASKEMEALSRSKQDDVTVKVSNTHNPPSDRDKESSI
In the case of B3, the Km in data set [4] amounted to 0.08 mM; in data set [5] it was 0.75 mM.

B4: Monocarboxylate transporter 4 (Homo sapiens), O15427 (protein)
chain: MGGAVVDEGPTGVKAPDGGWGWAVLFGCFVITGFSYAFPKAVSVFFKELIQEFGIGYSDTAWISSILLAMLYGTGPLCSVCVNRFGCRPVMLVGGLFASLGMVAASFCRSIIQVYLTTGVITGLGLALNFQPSLIMLNRYFSKRRPMANGLAAAGSPVFLCALSPLGQLLQDRYGWRGGFLILGGLLLNCCVCAALMRPLVVTAQPGSGPPRPSRRLLDLSVFRDRGFVLYAVAASVMVLGLFVPPVFVVSYAKDLGVPDTKAAFLLTILGFIDIFARPAAGFVAGLGKVRPYSVYLFSFSMFFNGLADLAGSTAGDYGGLVVFCIFFGISYGMVGALQFEVLMAIVGTHKFSSAIGLVLLMEAVAVLVGPPSGGKLLDATHVYMYVFILAGAEVLTSSLILLLGNFFCIRKKPKEPQPEVAAAEEEKLHKPPADSGVDLREVEHFLKAEPEKNGEVVHTPETSV
In the case of B4, in data set [6], the Km stood at 2.8 mM.

B5: Monocarboxylate transporter 1 (Rattus norvegicus), P53987 (protein)
chain: MPPAIGGPVGYTPPDGGWGWAVVVGAFISIGFSYAFPKSITVFFKEIEIIFSATTSEVSWISSIMLAVMYAGGPISSILVNKYGSRPVMIAGGCLSGCGLIAASFCNTVQELYFCIGVIGGLGLAFNLNPALTMIGKYFYKKRPLANGLAMAGSPVFLSTLAPLNQAFFGIFGWRGSFLILGGLLLNCCVAGSLMRPIGPQQGKVEKLKSKESLQEAGKSDANTDLIGGSPKGEKLSVFQTVNKFLDLSLFTHRGFLLYLSGNVVMFFGLFTPLVFLSNYGKSKHFSSEKSAFLLSILAFVDMVARPSMGLAANTRWIRPRVQYFFAASVVANGVCHLLAPLSTTYVGFCIYAGVFGFAFGWLSSVLFETLMDLVGPQRFSSAVGLVTIVECCPVLLGPPLLGRLNDMYGDYKYTYWACGVILIIAGLYLFIGMGINYRLVAKEQKAEEKKRDGKEDETSTDVDEKPKKTMKETQSPAPLQNSSGDPAEEESPV
As to B5, the figures for the Michaelis-Menten constant (Km) in data set [7], in data set [8] and in [9] were 0.2 mM, greater than 60 mM and 3.5 mM, respectively.
